Assay results: PMC9458464, “The BAF A12T mutation disrupts lamin A/C interaction, impairing robust repair of nuclear envelope ruptures in Nestor–Guillermo progeria syndrome cells” (Nucleic Acids Research, 2022)

Key:
[1] = target: T1, lamin A/C Ig-fold domain (aa 411-566) (human, UniProt P02545 411-566); experiment: NMR titration; 2D 1H-15N HSQC of 15N-labelled lamin A/C Ig-fold (80 uM; 160 uM in one sample) with unlabelled BAF at ratios 1:1 and 1:2; 50 mM HEPES pH 7.4, 150 mM NaCl, 293 K; peak intensity ratios I/Io; conditions: both partners purified
T1 construct: human lamin A/C fragment from aa 411 to aa 566 (Ig-fold domain); 15N-labelled (grown in M9) for the NMR experiments; also called Igfold domain of lamin A/C; source: E. coli BL21* (DE3), purified (glutathione beads, thrombin cleavage, gel filtration)
T1 sequence (looked up): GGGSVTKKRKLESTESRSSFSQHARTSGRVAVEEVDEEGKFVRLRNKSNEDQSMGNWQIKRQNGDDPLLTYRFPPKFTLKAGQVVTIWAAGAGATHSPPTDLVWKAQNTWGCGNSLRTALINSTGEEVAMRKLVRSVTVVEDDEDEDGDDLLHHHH

[2] = target: T1, lamin A/C Ig-fold domain (aa 411-566); experiment: ITC; VP-ITC; 100 or 200 uM lamin A/C Ig-fold in the syringe, 20 uM BAF WT or 40 uM BAF A12T in the cell; 50 mM Hepes pH 7.4, 150 mM NaCl, 288 K; stoichiometry set to 0.5 in the fit; each experiment done twice; conditions: both partners purified
[3] = target: the molecule itself; experiment: crystal structure; BAF A12T-lamin A/C Ig-fold complex recovered after ITC (50 mM Hepes pH 7.4, 150 mM NaCl), about 20 mg/ml; sitting drop, 0.1 M bicine pH 9, 3 M ammonium sulfate; 1.6 A
[4] = target: T2, BAF A12T (barrier-to-autointegration factor A12T, purified cysteine-free construct) (human, UniProt O75531 1-89, M1G | A12T | C67A | C77A | C80A | C85A); experiment: ITC
T2 sequence: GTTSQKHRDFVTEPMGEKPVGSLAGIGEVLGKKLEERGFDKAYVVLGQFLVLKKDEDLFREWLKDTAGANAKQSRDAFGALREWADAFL

[5] = target: T3, BAF WT (barrier-to-autointegration factor, purified cysteine-free construct) (human, UniProt O75531 1-89, M1G | C67A | C77A | C80A | C85A); experiment: ITC
T3 sequence: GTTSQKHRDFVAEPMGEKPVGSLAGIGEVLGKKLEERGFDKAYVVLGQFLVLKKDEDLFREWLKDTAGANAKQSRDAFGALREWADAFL

[6] = target: T2, BAF A12T (barrier-to-autointegration …); experiment: ITC; experiment 1
[7] = target: T3, BAF WT (barrier-to-autointegration …); experiment: ITC; experiment 1
[8] = target: T2, BAF A12T (barrier-to-autointegration …); experiment: ITC; experiment 2
[9] = target: T3, BAF WT (barrier-to-autointegration …); experiment: ITC; experiment 2

Binder	percent of the initial NMR signals of the Ig-fold left at 1:1 ratio [1] [%]	percent of the initial NMR signals of the Ig-fold left at 1:2 ratio [1] [%]	Kd [2] [µM]	stoichiometry N [3]	decrease of NMR signal intensity of the Ig-fold at 1:1 ratio [1] [%]	decrease of NMR signal intensity of the Ig-fold at 1:2 ratio [1] [%]	Kd [4] [µM]	Kd [5] [µM]	Kd [6] [µM]	Kd [7] [µM]	Kd [8] [µM]	Kd [9] [µM]
BAF WT (barrier-to-autointegration factor, purified cysteine-free construct) (natural protein, human, UniProt O75531 1-89, looked up, human barrier-to-autointegration factor (BAF, 89 amino acids); after tag cleavage the first residue is G instead of M; gene synthesized by Genscript in pETM13; also called BAF WT dimer; not shown: His8, N-terminal, cleaved) GTTSQKHRDFVAEPMGEKPVGSLAGIGEVLGKKLEERGFDKAYVVLGQFLVLKKDEDLFREWLKDTAGANAKQSRDAFGALREWADAFL	27	4	2.7 ± 1.2									
BAF A12T (barrier-to-autointegration factor A12T, purified cysteine-free construct) (natural protein, human, UniProt O75531 1-89, looked up, human barrier-to-autointegration factor (BAF, 89 amino acids); made by mutagenesis of the BAF WT expression vector (all cysteines to alanine, M1G after tag cleavage) with the NGPS mutation A12T; PDB 6GHD holds the parent (BAF WT); PDB 7Z21 holds this mutant; also called BAF A12T dimer; not shown: His8, N-terminal, cleaved) GTTSQKHRDFVTEPMGEKPVGSLAGIGEVLGKKLEERGFDKAYVVLGQFLVLKKDEDLFREWLKDTAGANAKQSRDAFGALREWADAFL			33 ± 4	2	43	66						
lamin A/C Ig-fold domain (aa 411-566) (domain or fragment) GGGSVTKKRKLESTESRSSFSQHARTSGRVAVEEVDEEGKFVRLRNKSNEDQSMGNWQIKRQNGDDPLLTYRFPPKFTLKAGQVVTIWAAGAGATHSPPTDLVWKAQNTWGCGNSLRTALINSTGEEVAMRKLVRSVTVVEDDEDEDGDDLLHHHH							24	2.3	24	2.3	42	3.1
